Data from PMC9347012, “Regulation of tomato fruit elongation by transcription factor BZR1.7 through promotion of SUN gene expression”.

Target: BZR1.7 (His-6-MBP-BZR1.7) (Solanum lycopersicum, UniProt A0A3Q7IIT4 1-180)
Assay: EMSA; EMSA: 20 uL binding reaction buffer (composition not given), 40 min at 4 °C in the dark; 6% native PAGE, 0.5x TBE, 4 °C; pH and salt not given
Details: protein: recombinant; tags: His6-MBP, N-terminal; label: 5'-FAM (on one strand; partner unlabeled); blunt

BZR1.7 (His-6-MBP-BZR1.7), sequence (A0A3Q7IIT4 entry or part of it): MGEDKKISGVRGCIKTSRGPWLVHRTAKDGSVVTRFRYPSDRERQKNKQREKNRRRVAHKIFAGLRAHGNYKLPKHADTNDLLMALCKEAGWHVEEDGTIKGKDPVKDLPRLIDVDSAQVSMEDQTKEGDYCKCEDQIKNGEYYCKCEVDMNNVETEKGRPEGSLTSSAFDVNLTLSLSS

B1: E-box-wt probe (SUN promoter, 42 bp) (dsDNA)
DNA 1: TGTCCATCAAGACCGAAACAAATGAGAAAAATCACCTAGTGT
DNA 2: ACACTAGGTGATTTTTCTCATTTGTTTCGGTCTTGATGGACA
binding result: binds

B2: E-box-mt probe (CAAATG to TCGCGA) (dsDNA)
DNA 1: TGTCCATCAAGACCGAAATCGCGAAGAAAAATCACCTAGTGT
DNA 2: ACACTAGGTGATTTTTCTTCGCGATTTCGGTCTTGATGGACA
binding result: no binding
